Measured values from patent US20040132130.

B1: His-Xpress-sOMGnT(S) (protein)
chain: SSAEEAECHWADTELNRRRRRFCSKVEGYGSVCSCKDPTPIEFSPDPLPDNKVLNVPVAVIAGNRPNYLYRMLRSLLSAQGVSPQMITVFIDGYYEEPMDVVALFGLRGIQHTPISIKNARVSQHYKASLTATFNLFPEAKFAVVLEEDLDIAVDFFSFLSQSIHLLEEDDSLYCISAWNDQGYEHTAEDPALLYRVETMPGLGWVLRRSLYKEELEPKWPTPEKLWDWDMWMRMPEQRRGRECIIPDVSRSYHFGIVGLNMNGYFHEAYFKKHKFNTVPGVQLRNVDSLKKEAYEVEVHRLLSEAEVLDHSKNPCEDSFLPDTEGHTYVAFIRMEKDDDFTTWTQLAKCLHIWDLDVRGNHRGLWRLFRKKNHFLVVGVPASPYSVKKPPSVTPIFLEPPPKEEGAPGAPEQT
B2: His-Xpress-sGnT-I (protein)
chain: SVSALDGDPASLTREVIRLAQDAEVELERQRGLLQQIGDALSSQRGRVPTAAPPAQPRVPVTPAPAVIPILVIACDRSTVRRCLDKLLHYRPSAELFPIIVSQDCGHEETAQAIASYGSAVTHIRQPDLSSIAVPPDHRKFQGYYKIARHYRWALGQVFRQFRFPAAVVVEDDLEVAPDFFEYFRATYPLLKADPSLWCVSAWNDNGKEQMVDASRPELLYRTDFFPGLGWLLLAELWAELEPKWPKAFWDDWMRRPEQRQGRACIRPEISRTMTFGRKGVSHGQFFDQHLKFIKLNQQFVHFTQLDLSYLQREAYDRDFLARVYGAPQLQVEKVRTNDRKELGEVRVQYTGRDSFKAFAKALGVMDDLKSGVPRAGYRGIVTFQFRGRRVHLAPPLTWEGYDPSWN

Target: T1, Ac-Ala-Ala-Pro-Thr(Man)-Pro-Val-Ala-Ala-Pro-NH2
T1 chain: AAPTPVAAP

Protein | Km value [µM] | OMGnT activity (pmol/hr/mg protein) (pmol/hr/mg protein) | OMGnT relative activity (%)
B1 | 1360 | 20 | 100
B2 |  | 0.4 | 
